Consider 2 molecules from patent US20110223163A1 (US Dept. of Health and Human Services, published 2011).

The term Kd denotes a measure of binding affinity in units of concentration. Higher therefore signals lower affinity. As a reminder, the koff is a measure of how fast the partners let go of each other. High values mean fast dissociation, low ones slow dissociation. Broadly, the kon is the rate constant with which the complex forms. High values mean fast association, low ones slow association.

Assay [1] has as its target BSA (UniProt P02769 25-607). Kind of assay: ELISA, full-length IgG. (In general: In an ELISA, binding on a coated surface is turned into a signal by an enzyme label.)
The target in assay [2] is synthetic 10-mer peptide of γ-D-glutamic acids.

Chain of BSA (P02769 25-607 limits assumed): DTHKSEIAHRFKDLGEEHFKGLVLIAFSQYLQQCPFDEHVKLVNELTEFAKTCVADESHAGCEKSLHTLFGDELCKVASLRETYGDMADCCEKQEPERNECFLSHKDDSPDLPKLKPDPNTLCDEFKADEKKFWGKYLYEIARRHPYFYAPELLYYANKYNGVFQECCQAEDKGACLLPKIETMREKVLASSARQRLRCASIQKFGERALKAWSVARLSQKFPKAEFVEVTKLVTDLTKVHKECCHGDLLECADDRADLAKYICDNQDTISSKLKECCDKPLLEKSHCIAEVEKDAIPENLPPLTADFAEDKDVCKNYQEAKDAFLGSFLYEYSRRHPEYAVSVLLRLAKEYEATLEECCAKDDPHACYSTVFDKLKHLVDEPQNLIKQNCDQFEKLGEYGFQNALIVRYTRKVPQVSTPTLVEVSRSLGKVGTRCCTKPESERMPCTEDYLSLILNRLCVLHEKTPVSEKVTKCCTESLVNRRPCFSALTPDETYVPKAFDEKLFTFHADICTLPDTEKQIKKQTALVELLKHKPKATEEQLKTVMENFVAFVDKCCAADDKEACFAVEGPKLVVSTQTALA

B1: anti-γDPGA chimpanzee monoclonal antibody 4C, full-length IgG with human γ1 constant regions (antibody, V domains shown)
VH: LEESGGGLVKPGDSLRLSCAASGFTFSVYAMHWVRQAPEKGLEWVSTIGAGGNTWHSDSVKGRYTIARDNSQNTLSLQMNSLRAEDTAVYYCVRRGYCSSTRCDSNDAFDIWGQGTMVTVS
VL: APMTQSPSSLSASVGDRVSITCRASQDINDFLAWFQQKPGKAPKRLIFRTSSLQGGVSSRFSGSGSGTEFTLTISNLRPEDFATYYCLQHSSYPPTFGQGTKLEISR
notes: also called 4C IgG; IgG1 of anti-γDPGA 4C monoclonal antibody
Regarding B1, in assay [1], the binding result is listed as “no binding”. In addition, in assay [2], the Kd turned out to be 550 pM, the dissociation rate constant (koff) stood at 0.0023 s⁻¹ and the kon turned out to be 4.2e+06 M⁻¹ s⁻¹.

B2: anti-γDPGA chimpanzee monoclonal antibody 11D, full-length IgG with human γ1 constant regions (antibody, V domains shown)
VH: LESGGGLVKPGGSLTLSCAASGFTFSTYAMHWVRQAPEKGLEWVSTIGRSGDTLYSDSVKGRFSISRDNSKNTLYLQMNSLRAEDTAVYYCARKGYCSSTNCQSQYYFDYWGQGTLVTVS
VL: ELTQSPSSLSASVGGRVTITCRASQDVNTWLAWYQQKPGKAPKPLIYAASSLQGGVPSRFSGSGSGTDFTLTISSLQPEDFATYYCQQYKHYPLTFGGGTKVEIKR
notes: also called 11D IgG; CH11D-hG1
For B2, in assay [1], the binding result is reported as “no binding”. Also, in assay [2], the Kd is 82 pM, the koff was found to be 9.04e-05 s⁻¹ and the kon came out at 1.1e+06 M⁻¹ s⁻¹.
